The target of this experiment is RAC1^P29S, purified (human, UniProt P63000 1-192, P29S). The experiment is described as follows: stopped-flow fluorimetry; mGppNHp-bound RAC1 with varying concentrations of His-IQGAP1 C794; kon, koff, Kd = koff/kon. To be noted: both partners purified.

B1: His-IQGAP1 C794 (C-terminal 794 amino acids of IQ motif-containing GTPase-activating protein 1) (domain or fragment)
chain: PPMVVVRKFVHLLDQSDQDFQEELDLMKMREEVITLIRSNQQLENDLNLMDIKIGLLVKNKITLQDVVSHSKKLTKKNKEQLSDMMMINKQKGGLKALSKEKREKLEAYQHLFYLLQTNPTYLAKLIFQMPQNKSTKFMDSVIFTLYNYASNQREEYLLLRLFKTALQEEIKSKVDQIQEIVTGNPTVIKMVVSFNRGARGQNALRQILAPVVKEIMDDKSLNIKTDPVDIYKSWVNQMESQTGEASKLPYDVTPEQALAHEEVKTRLDSSIRNMRAVTDKFLSAIVSSVDKIPYGMRFIAKVLKDSLHEKFPDAGEDELLKIIGNLLYYRYMNPAIVAPDAFDIIDLSAGGQLTTDQRRNLGSIAKMLQHAASNKMFLGDNAHLSIINEYLSQSYQKFRRFFQTACDVPELQDKFNVDEYSDLVTLTKPVIYISIGEIINTHTLLLDHQDAIAPEHNDPIHELLDDLGEVPTIESLIGESSGNLNDPNKEALAKTEVSLTLTNKFDVPGDENAEMDARTILLNTKRLIVDVIRFQPGETLTEILETPATSEQEAEHQRAMQRRAIRDAKTPDKMKKSKSVKEDSNLTLQEKKEKIQTGLKKLTELGTVDPKNKYQELINDIARDIRNQRRYRQRRKAELVKLQQTYAALNSKATFYGEQVDYYKSYIKTCLDNLASKGKVSKKPREMKGKKSKKISLKYTAARLHEKGVLLEIEDLQVNQFKNVIFEISPTEEVGDFEVKAKFMGVQMETFMLHYQDLLQLQYEGVAVMKLFDRAKVNVNLLIFLLNKKFYGK
notes: neither is stated here
On to B1, for which the “fold higher binding affinity than that of PAK1 for RAC1^P29S” value stood at 30 fold.

Source of the values: PMC12702776, “New insights into the classification of the RAC1 P29S hotspot mutation in melanoma as an oncogene” (Cancer Gene Therapy, 2025).
